Reference: US8785135B2, “Mutant G-protein coupled receptors and methods for selecting them” (Heptares Therapeutics Limited, priority 2007, dated 2014)

B1: Q226A: A2aR point mutant (protein, UniProt P29274 1-412, looked up, variant Q226A)
Adenosine receptor A2a: MPIMGSSVYITVELAIAVLAILGNVLVCWAVWLNSNLQNVTNYFVVSLAAADIAVGVLAIPFAITISTGFCAACHGCLFIACFVLVLTQSSIFSLLAIAIDRYIAIRIPLRYNGLVTGTRAKGIIAICWVLSFAIGLTPMLGWNNCGQPKEGKNHSQGCGEGQVACLFEDVVPMNYMVYFNFFACVLVPLLLMLGVYLRIFLAARRQLKQMESQPLPGERARSTLAKEVHAAKSLAIIVGLFALCWLPLHIINCFTFFCPDCSHAPLWLMYLAIVLSHTNSVVNPFIYAYRIREFRQTFRKIIRSHVLRQQEPFKAAGTSARVLAAHGSDGEQVSLRLNGHPPGVWANGSAPHPERRPNGYALGLVSGGSAQESQGNTGLPDVELLSHELKGVCPEPPGLDDPLAQDGAGVS
B2: L241A: A2aR point mutant (protein, UniProt P29274 1-412, looked up, variant L241A)
Adenosine receptor A2a: MPIMGSSVYITVELAIAVLAILGNVLVCWAVWLNSNLQNVTNYFVVSLAAADIAVGVLAIPFAITISTGFCAACHGCLFIACFVLVLTQSSIFSLLAIAIDRYIAIRIPLRYNGLVTGTRAKGIIAICWVLSFAIGLTPMLGWNNCGQPKEGKNHSQGCGEGQVACLFEDVVPMNYMVYFNFFACVLVPLLLMLGVYLRIFLAARRQLKQMESQPLPGERARSTLQKEVHAAKSLAIIVGAFALCWLPLHIINCFTFFCPDCSHAPLWLMYLAIVLSHTNSVVNPFIYAYRIREFRQTFRKIIRSHVLRQQEPFKAAGTSARVLAAHGSDGEQVSLRLNGHPPGVWANGSAPHPERRPNGYALGLVSGGSAQESQGNTGLPDVELLSHELKGVCPEPPGLDDPLAQDGAGVS
B3: H230A: A2aR point mutant (protein, UniProt P29274 1-412, looked up, variant H230A)
Adenosine receptor A2a: MPIMGSSVYITVELAIAVLAILGNVLVCWAVWLNSNLQNVTNYFVVSLAAADIAVGVLAIPFAITISTGFCAACHGCLFIACFVLVLTQSSIFSLLAIAIDRYIAIRIPLRYNGLVTGTRAKGIIAICWVLSFAIGLTPMLGWNNCGQPKEGKNHSQGCGEGQVACLFEDVVPMNYMVYFNFFACVLVPLLLMLGVYLRIFLAARRQLKQMESQPLPGERARSTLQKEVAAAKSLAIIVGLFALCWLPLHIINCFTFFCPDCSHAPLWLMYLAIVLSHTNSVVNPFIYAYRIREFRQTFRKIIRSHVLRQQEPFKAAGTSARVLAAHGSDGEQVSLRLNGHPPGVWANGSAPHPERRPNGYALGLVSGGSAQESQGNTGLPDVELLSHELKGVCPEPPGLDDPLAQDGAGVS
B4: K227A: A2aR point mutant (protein, UniProt P29274 1-412, looked up, variant K227A)
Adenosine receptor A2a: MPIMGSSVYITVELAIAVLAILGNVLVCWAVWLNSNLQNVTNYFVVSLAAADIAVGVLAIPFAITISTGFCAACHGCLFIACFVLVLTQSSIFSLLAIAIDRYIAIRIPLRYNGLVTGTRAKGIIAICWVLSFAIGLTPMLGWNNCGQPKEGKNHSQGCGEGQVACLFEDVVPMNYMVYFNFFACVLVPLLLMLGVYLRIFLAARRQLKQMESQPLPGERARSTLQAEVHAAKSLAIIVGLFALCWLPLHIINCFTFFCPDCSHAPLWLMYLAIVLSHTNSVVNPFIYAYRIREFRQTFRKIIRSHVLRQQEPFKAAGTSARVLAAHGSDGEQVSLRLNGHPPGVWANGSAPHPERRPNGYALGLVSGGSAQESQGNTGLPDVELLSHELKGVCPEPPGLDDPLAQDGAGVS
B5: P260A: A2aR point mutant (protein, UniProt P29274 1-412, looked up, variant P260A)
Adenosine receptor A2a: MPIMGSSVYITVELAIAVLAILGNVLVCWAVWLNSNLQNVTNYFVVSLAAADIAVGVLAIPFAITISTGFCAACHGCLFIACFVLVLTQSSIFSLLAIAIDRYIAIRIPLRYNGLVTGTRAKGIIAICWVLSFAIGLTPMLGWNNCGQPKEGKNHSQGCGEGQVACLFEDVVPMNYMVYFNFFACVLVPLLLMLGVYLRIFLAARRQLKQMESQPLPGERARSTLQKEVHAAKSLAIIVGLFALCWLPLHIINCFTFFCADCSHAPLWLMYLAIVLSHTNSVVNPFIYAYRIREFRQTFRKIIRSHVLRQQEPFKAAGTSARVLAAHGSDGEQVSLRLNGHPPGVWANGSAPHPERRPNGYALGLVSGGSAQESQGNTGLPDVELLSHELKGVCPEPPGLDDPLAQDGAGVS

Assay: Thermostability of A2aR and mutants (ligand binding after or during heating)
Format: physicochemical
Settings: Ligand(−) format, binding after the heating step
Description: FIG. 12 Flow chart showing the two different assay formats of ligand (+) and ligand (−) used to determine receptor thermostability.
• 1. 315 site-directed mutants made between residues 2-316 of A2aR. • 2. All of these mutants have been assayed for thermostability using an assay measuring agonist and antagonist binding after the heating step (Ligand(−) format as described in FIG. 12). • a. […] Mutations have been combined to generate mutants in a putative antagonist conformation. Wildtype A2aR has a Tm of 31° C. with ZM241385 bound. • a. Rant17 A54L+K122A+L235A Tm 48° C. (ZM241385 bound) • b. Rant19 A54L, T88A, V239A+A204L Tm 47° C. (ZM241385 bound) • c. Rant21 A54L, T88A, V239A+K122A Tm 49° C. (ZM241385 bound) • 4. Mutations from the agonist screen have been combined, but have led to only a very low level of improvement in Tm of +2° C.

Thermostability measured with 3H-NECA (agonist), improved thermostability:
B1
B2
B3
B4
B5
